How the values were obtained:
[1] = tested on: LRP6; test: ^125I-Mesd cell surface ligand binding to LRP6-transduced HT1080 cells; parameters: species or system human; settings: HT1080 cells transduced with vector alone, ^125I-Mesd 5 nM, 4° C.
Procedure: To examine whether Mesd binds with high affinity to […] at the cell surface, cell surface ligand binding experiments were performed with cells stably transduced with LRP6 cDNA. Human HT1080 cells, which express undetectable levels of LRP6, were transduced with a viral vector alone (pLNCX2) or with vector containing LRP6 cDNA (Li, Y., Oncogene 23: 9129-9135, 2004) and used for ^125I-Mesd binding (FIG. 1A). ^125I-Mesd (5 nM) reached maximal binding after 2 hours incubation at 4° C. with LRP6-expressing HT1080 cells (FIG. 1A).
(A) Time course of ^125I-Mesd (5 nM) binding to LRP6-transduced HT1080 cells and the control cells. Assay was carried out for the indicated periods at 4° C. in the absence (total) or presence of 500 nM Mesd (non-specific). (B) Saturation binding of ^125I-Mesd to LRP6-transduced HT1080 cells and the control cells. Assay was carried out at indicated concentrations for 3 hours at 4° C. in the absence (total) or presence (non-specific) of 500 nM Mesd. (C) Scatchard plots of data in B. All values are the average of triple determinations with the s.d. indicated by error bars.
Cells (2×10^5) were seeded into 12-well dishes 1 day prior to assay. […] Thereafter, overlying buffer containing unbound ligand was removed, and cell monolayers were washed and lysed in low-SDS lysis buffer (62.5 mM Tris-HCl pH 6.8, 0.2% SDS, 10% v/glycerol) and counted.

[2] = target: T1, LRP6 (Homo sapiens, UniProt O75581); test: ^125I-DKK1 binding to LRP6-transduced HT1080 cells; parameters: plasmid pCS-Myc-hLRP6 containing the full-length human LRP6 cDNA; HA; expressed in transfected cells; host or cells: human HT1080 cells, stably transduced (pLNCX2 retroviral vector); settings: 500 nM competitor, ^125I-DKK1 5 nM, 3 hours at 4° C.
Procedure: Cells (2×10^5) were seeded into 12-well dishes 1 day prior to assay. Ligand-binding buffer (minimal Eagle's medium containing 0.6% BSA with a different concentration of radioligand, 0.6 ml/well) was added to cell monolayers, in the absence or the presence of 500 nM unlabeled RAP or 500 nM unlabeled Mesd, followed with incubation for 0-4 hours at 4° C. Thereafter, overlying buffer containing unbound ligand was removed, and cell monolayers were washed and lysed in low-SDS lysis buffer (62.5 mM Tris-HCl pH 6.8, 0.2% SDS, 10% v/glycerol) and counted.
RAP is a receptor antagonist for members of the LDLR family, and is able to inhibit the binding of most known ligands of the LDLR family members. […] In these experiments, Serum-free conditioned medium was harvested from HEK293 cells transiently transfected with cDNA for human Myc-DKK1 and allowed to bind to LRP6-transduced HT1080 cells (B,C) and control cells (A) in the absence (A,B) or presence (C) of 1 μM Mesd. Cell-surface-bound Myc-tagged DKK proteins were fixed and detected by immunofluorescence staining with anti-Myc antibody. […] Binding of 125I-DKK1 (5 nM) to LRP6-transduced HT1080 cells or the control cells was carried out for 3 hours at 4° C. in the absence (total) or presence of 500 nM RAP or 500 nM Mesd. […] LRP6-mediated 125I-Mesd (5 nM) degradation was carried out for 4 hours at 37° C. in the absence or presence of 500 nM RAP or 500 nM Mesd. Values are the means of triple determinations with the s.d. indicated by error bars. Bar, 10 μm.

[3] = tested on: cytosolic β-catenin; test: Cytosolic β-catenin level by western blotting in LRP6-transduced HT1080 cells; assay type: cell-based, human; settings: 0.5 to 5 nM Mesd, 2 hours at 37° C. (data not shown)
Procedure: […] After washing in ice-cold PBS, cells were collected and homogenized in a glass Dounce homogenizer in buffer consisting of 100 mM Tris-HCl pH 7.4, 140 mM NaCl, 2 mM DTT, 2 mM PMSF, and 1X Complete™ protease inhibitors (500 μl/well). The homogenate was centrifuged for 10 minutes at 500 g, and the supernatant was further centrifuged at 100,000 g at 4° C. for 90 minutes. The resulting supernatant was designated the cytosolic fraction. The β-catenin levels were then examined by western blotting using β-catenin-specific antibody from Cell Signaling Technology. The immunoreactive proteins were detected using the ECL system. Films showing immunoreactive bands were scanned with a Kodak Digital Science DC120 Zoom Digital Camera and band intensities were analyzed with Kodak Digital Science 1D Image Analysis Software.
β-catenin is a key molecule in the Wnt/β-catenin signaling pathway. A cytosolic pool of β-catenin interacts with DNA-binding proteins and participates in Wnt signal transduction (Hinck, L., J. Cell Biol. 125, 1327-13401994; Gottardi, C. J., J. Cell Biol. 153: 1049-1060, 2001; Klingelhofer, J., Oncogene 22, 1181-1188, 2003). To determine whether Mesd binding to cell surface LRP6 directly regulates Wnt signaling, the effects of Mesd binding on cytosolic P-catenin levels in HT1080-LRP6 cells were studied. […]

[4] = target: T1, LRP6; test: Cell surface Myc-DKK1 binding and immunodetection on LRP6-transduced HT1080 cells; parameters: plasmid pCS-Myc-hLRP6 containing the full-length human LRP6 cDNA; HA; expressed in transfected cells; host or cells: human HT1080 cells, stably transduced (pLNCX2 retroviral vector); settings: 1 μM Mesd, room temperature 60 minutes, immunofluorescence
Description: Values are the means of triple determinations with the s.d. indicated by error bars. Bar, 10 μm.

T1 sequence (O75581 20-1613): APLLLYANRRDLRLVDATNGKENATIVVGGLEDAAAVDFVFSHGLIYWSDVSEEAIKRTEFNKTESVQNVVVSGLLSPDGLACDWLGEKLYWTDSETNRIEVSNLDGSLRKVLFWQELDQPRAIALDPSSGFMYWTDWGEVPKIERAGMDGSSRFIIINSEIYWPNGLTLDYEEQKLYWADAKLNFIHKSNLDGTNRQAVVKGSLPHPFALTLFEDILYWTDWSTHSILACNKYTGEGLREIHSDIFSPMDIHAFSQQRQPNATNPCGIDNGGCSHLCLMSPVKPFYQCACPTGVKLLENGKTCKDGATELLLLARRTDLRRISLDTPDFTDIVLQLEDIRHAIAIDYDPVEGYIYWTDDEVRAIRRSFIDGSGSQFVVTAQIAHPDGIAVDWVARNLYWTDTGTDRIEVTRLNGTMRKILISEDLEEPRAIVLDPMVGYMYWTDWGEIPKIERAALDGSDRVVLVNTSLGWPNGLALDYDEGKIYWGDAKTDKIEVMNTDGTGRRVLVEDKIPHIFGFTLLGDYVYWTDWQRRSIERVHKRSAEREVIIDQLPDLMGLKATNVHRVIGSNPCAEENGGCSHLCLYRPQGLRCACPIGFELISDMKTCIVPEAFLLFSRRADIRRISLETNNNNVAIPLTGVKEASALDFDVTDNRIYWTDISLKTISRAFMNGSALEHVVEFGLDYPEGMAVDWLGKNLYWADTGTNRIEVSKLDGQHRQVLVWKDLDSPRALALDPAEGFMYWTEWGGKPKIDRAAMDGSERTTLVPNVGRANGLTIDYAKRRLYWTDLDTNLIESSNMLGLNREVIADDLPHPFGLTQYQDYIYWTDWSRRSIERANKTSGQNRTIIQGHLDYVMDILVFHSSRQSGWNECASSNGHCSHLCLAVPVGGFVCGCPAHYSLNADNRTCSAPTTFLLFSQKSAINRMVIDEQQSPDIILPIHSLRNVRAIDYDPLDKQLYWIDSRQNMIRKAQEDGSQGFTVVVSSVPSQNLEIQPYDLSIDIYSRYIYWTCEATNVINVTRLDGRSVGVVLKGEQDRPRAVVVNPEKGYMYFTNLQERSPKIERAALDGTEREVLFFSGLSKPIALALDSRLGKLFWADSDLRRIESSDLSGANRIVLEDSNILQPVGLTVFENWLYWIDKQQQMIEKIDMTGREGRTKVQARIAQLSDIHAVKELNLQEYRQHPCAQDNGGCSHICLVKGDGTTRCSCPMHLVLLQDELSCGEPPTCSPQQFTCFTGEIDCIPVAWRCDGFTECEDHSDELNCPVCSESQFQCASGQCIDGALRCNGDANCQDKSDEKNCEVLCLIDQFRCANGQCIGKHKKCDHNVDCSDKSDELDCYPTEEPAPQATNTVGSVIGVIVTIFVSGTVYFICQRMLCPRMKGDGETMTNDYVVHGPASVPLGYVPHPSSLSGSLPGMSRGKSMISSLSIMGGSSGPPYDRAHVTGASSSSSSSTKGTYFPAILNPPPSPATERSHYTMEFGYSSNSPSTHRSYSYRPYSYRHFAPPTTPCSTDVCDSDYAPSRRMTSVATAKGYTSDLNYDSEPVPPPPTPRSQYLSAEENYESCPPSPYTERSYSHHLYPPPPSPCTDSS

B1: Mesd: recombinant wild-type mouse Mesd, polyhistidine tail at the N-terminus, lacks the signal peptide, expressed in E. coli (protein)
chain: ADTPGEATPPPRKKKDIRDYNDADMARLLEQWEKDDDIEEGDLPEHKRPSAPIDFSKLDPGKPESILKMTKKGKTLMMFVTVSGNPTEKETEEITSLWQGSLFNANYDVQRFIVGSDRAIFMLRDGSYAWEIKDFLVSQDRCAEVTLEGQMYPGKGGGSKEKNKTKPEKAKKKEGDRKPRASKEDNRAGSRREDL
modifications: left off: small tags and cut ends
notes: recombinant wild-type mouse Mesd, polyhistidine tail at the N-terminus, lacks the signal peptide, expressed in E. coli
^125I-Mesd binding to control cells (pLNCX2) [1]: No significant ^125I-Mesd binding | Effect of excess unlabeled competitor on increased DKK1 binding [2]: abolished | Change in cytosolic β-catenin levels [3]: no significant change | Effect on binding of Myc-DKK1 to LRP6 at the cell surface [4]: completely blocked
